± gives the uncertainty stated by the source.
B1: Ankyrin-2, residues 3571 to 3650; numbered along this chain, Q01484 (parent)
chain: ERLAYIADHLGFSWTELARELDFTEEQIHQIRIENPNSLQDQSHALLKYWLERDGKHATDTNLVECLTKINRMDIVHLME

Variants of: B1
Assay: abundance fitness (aPCA) (normalised: wild type 0, dead -1); higher = more abundant; growth selection in yeast, the domain comes from the species named
Details: Homo sapiens

ERLAYIADHLGFSWTELARELDFTEEQIHQIRIENPNSLQDQSHALLKYWLERDGKHATDTNLVECLTKINRMVIVHLME [D74V] and ERLAYIADHLGFSWTELARELDFTEEQIHQIRIENPNSLQDQSHALLKYWLERDGKHATDTNLVECLTKINRMTIVHLME [D74T] are within error of each other in abundance fitness: -0.682 ± 0.11 for the first, -0.793 ± 0.12 for the second.

First: ERLAYIADHLGFSWTELARELDFTEEQIHQIRIENPNSLQDQSHALLKYWLERDGKHATDTNLVECLTKINRMQIVHLME [D74Q]
Second: ERLAYIADHLGFSWTELARELDFTEEQIHQIRIENPNSLQDQSHALLKYWLERDGKHATDTNLVECLTKINRMLIVHLME [D74L]
The abundance fitness of the first is higher: -0.435 ± 0.18 for the first, -0.849 ± 0.095 for the second.

ERLAYIADHLGFSWTELARELDFTEEQIHQIRIENPNSLQDQSHALLKYWLERDGKHATDTNLVECLTKINRMWIVHLME [D74W] and ERLAYIADHLGFSWTELARELDFTEEQIHQIRIENPNSLQDQSHALLKYWLERDGKHATDTNLVECLTKINRMNIVHLME [D74N] are within error of each other in abundance fitness: -0.573 ± 0.17 for the first, -0.577 ± 0.17 for the second.

Going from ERLAYIADHLGFSWTELARELDFTEEQIHQIRIENPNSLQDQSHALLKYWLERDGKHATDTNLVECLTKINRMPIVHLME [D74P] to ERLAYIADHLGFSWTELARELDFTEEQIHQIRIENPNSLQDQSHALLKYWLERDGKHATDTNLVECLTKINRMMIVHLME [D74M], the abundance fitness falls from -0.471 ± 0.058 to -0.839 ± 0.26.

ERLAYIADHLGFSWTELARELDFTEEQIHQIRIENPNSLQDQSHALLKYWLERDGKHATDTNLVECLTKINRMIIVHLME [D74I] and ERLAYIADHLGFSWTELARELDFTEEQIHQIRIENPNSLQDQSHALLKYWLERDGKHATDTNLVECLTKINRMYIVHLME [D74Y] are within error of each other in abundance fitness: -0.692 ± 0.22 for the first, -0.862 ± 0.24 for the second.

ERLAYIADHLGFSWTELARELDFTEEQIHQIRIENPNSLQDQSHALLKYWLERDGKHATDTNLVECLTKINRMSIVHLME [D74S] and ERLAYIADHLGFSWTELARELDFTEEQIHQIRIENPNSLQDQSHALLKYWLERDGKHATDTNLVECLTKINRMRIVHLME [D74R] are within error of each other in abundance fitness: -0.593 ± 0.067 for the first, -0.707 ± 0.11 for the second.

ERLAYIADHLGFSWTELARELDFTEEQIHQIRIENPNSLQDQSHALLKYWLERDGKHATDTNLVECLTKINRMKIVHLME [D74K] and ERLAYIADHLGFSWTELARELDFTEEQIHQIRIENPNSLQDQSHALLKYWLERDGKHATDTNLVECLTKINRMDIYHLME [V76Y] are within error of each other in abundance fitness: -0.348 ± 0.19 for the first, -0.196 ± 0.12 for the second.

Going from ERLAYIADHLGFSWTELARELDFTEEQIHQIRIENPNSLQDQSHALLKYWLERDGKHATDTNLVECLTKINRMDIKHLME [V76K] to ERLAYIADHLGFSWTELARELDFTEEQIHQIRIENPNSLQDQSHALLKYWLERDGKHATDTNLVECLTKINRMDIIHLME [V76I], the abundance fitness rises from -0.467 ± 0.2 to 0.04 ± 0.088.

ERLAYIADHLGFSWTELARELDFTEEQIHQIRIENPNSLQDQSHALLKYWLERDGKHATDTNLVECLTKINRMDIHHLME [V76H] and ERLAYIADHLGFSWTELARELDFTEEQIHQIRIENPNSLQDQSHALLKYWLERDGKHATDTNLVECLTKINRMDITHLME [V76T] are within error of each other in abundance fitness: -0.084 ± 0.13 for the first, -0.223 ± 0.14 for the second.

ERLAYIADHLGFSWTELARELDFTEEQIHQIRIENPNSLQDQSHALLKYWLERDGKHATDTNLVECLTKINRMDIMHLME [V76M] and ERLAYIADHLGFSWTELARELDFTEEQIHQIRIENPNSLQDQSHALLKYWLERDGKHATDTNLVECLTKINRMDISHLME [V76S] are within error of each other in abundance fitness: -0.099 ± 0.12 for the first, -0.219 ± 0.1 for the second.

ERLAYIADHLGFSWTELARELDFTEEQIHQIRIENPNSLQDQSHALLKYWLERDGKHATDTNLVECLTKINRMDINHLME [V76N] and ERLAYIADHLGFSWTELARELDFTEEQIHQIRIENPNSLQDQSHALLKYWLERDGKHATDTNLVECLTKINRMDILHLME [V76L] are within error of each other in abundance fitness: -0.249 ± 0.24 for the first, -0.081 ± 0.091 for the second.

ERLAYIADHLGFSWTELARELDFTEEQIHQIRIENPNSLQDQSHALLKYWLERDGKHATDTNLVECLTKINRMDICHLME [V76C] and ERLAYIADHLGFSWTELARELDFTEEQIHQIRIENPNSLQDQSHALLKYWLERDGKHATDTNLVECLTKINRMDIEHLME [V76E] are within error of each other in abundance fitness: -0.027 ± 0.18 for the first, -0.063 ± 0.11 for the second.

Compared with ERLAYIADHLGFSWTELARELDFTEEQIHQIRIENPNSLQDQSHALLKYWLERDGKHATDTNLVECLTKINRMDIWHLME [V76W], ERLAYIADHLGFSWTELARELDFTEEQIHQIRIENPNSLQDQSHALLKYWLERDGKHATDTNLVECLTKINRMDIGHLME [V76G] is lower in abundance fitness: -0.05 ± 0.11 for the first, -0.216 ± 0.046 for the second.

ERLAYIADHLGFSWTELARELDFTEEQIHQIRIENPNSLQDQSHALLKYWLERDGKHATDTNLVECLTKINRMDIPHLME [V76P] and ERLAYIADHLGFSWTELARELDFTEEQIHQIRIENPNSLQDQSHALLKYWLERDGKHATDTNLVECLTKINRMDIAHLME [V76A] are within error of each other in abundance fitness: -0.226 ± 0.095 for the first, -0.091 ± 0.16 for the second.

ERLAYIADHLGFSWTELARELDFTEEQIHQIRIENPNSLQDQSHALLKYWLERDGKHATDTNLVECLTKINRMDIFHLME [V76F] and ERLAYIADHLGFSWTELARELDFTEEQIHQIRIENPNSLQDQSHALLKYWLERDGKHATDTNLVECLTKINRMDIQHLME [V76Q] are within error of each other in abundance fitness: -0.102 ± 0.11 for the first, -0.107 ± 0.16 for the second.

ERLAYIADHLGFSWTELARELDFTEEQIHQIRIENPNSLQDQSHALLKYWLERDGKHATDTNLVECLTKINRMDIRHLME [V76R] and ERLAYIADHLGFSWTELARELDFTEEQIHQIRIENPNSLQDQSHALLKYWLERDGKHATDTNLVECLTKINRMDSVHLME [I75S] are within error of each other in abundance fitness: -0.223 ± 0.093 for the first, -0.54 ± 0.45 for the second.

Going from ERLAYIADHLGFSWTELARELDFTEEQIHQIRIENPNSLQDQSHALLKYWLERDGKHATDTNLVECLTKINRMDAVHLME [I75A] to ERLAYIADHLGFSWTELARELDFTEEQIHQIRIENPNSLQDQSHALLKYWLERDGKHATDTNLVECLTKINRMDGVHLME [I75G], the abundance fitness falls from 0.011 ± 0.17 to -0.263 ± 0.087.

First: ERLAYIADHLGFSWTELARELDFTEEQIHQIRIENPNSLQDQSHALLKYWLERDGKHATDTNLVECLTKINRMDEVHLME [I75E]
Second: ERLAYIADHLGFSWTELARELDFTEEQIHQIRIENPNSLQDQSHALLKYWLERDGKHATDTNLVECLTKINRMDRVHLME [I75R]
The abundance fitness of the first is higher: -0.031 ± 0.11 for the first, -0.609 ± 0.21 for the second.

ERLAYIADHLGFSWTELARELDFTEEQIHQIRIENPNSLQDQSHALLKYWLERDGKHATDTNLVECLTKINRMDCVHLME [I75C] and ERLAYIADHLGFSWTELARELDFTEEQIHQIRIENPNSLQDQSHALLKYWLERDGKHATDTNLVECLTKINRMDVVHLME [I75V] are within error of each other in abundance fitness: -0.297 ± 0.28 for the first, 0.136 ± 0.27 for the second.

ERLAYIADHLGFSWTELARELDFTEEQIHQIRIENPNSLQDQSHALLKYWLERDGKHATDTNLVECLTKINRMDMVHLME [I75M] gave an abundance fitness of 0.076 ± 0.25.

Reference: the Human Domainome abundance scans (Beltran et al. 2025)
